Numbering of substitutions follows the chain as printed.
How the values were obtained:
Assay in all cases: flow cytometry on transfected HEK293 cells (GFP+ gate), PE goat anti-huIgG4 [b]
[1] = target: T1, CEACAM6 expressed on the surface of HEK293 cells (human, UniProt P40199 35-320)
T1 construct: whole, on cells; GFP-tagged clone; also called CEACAM6-GFP
T1 sequence (looked up): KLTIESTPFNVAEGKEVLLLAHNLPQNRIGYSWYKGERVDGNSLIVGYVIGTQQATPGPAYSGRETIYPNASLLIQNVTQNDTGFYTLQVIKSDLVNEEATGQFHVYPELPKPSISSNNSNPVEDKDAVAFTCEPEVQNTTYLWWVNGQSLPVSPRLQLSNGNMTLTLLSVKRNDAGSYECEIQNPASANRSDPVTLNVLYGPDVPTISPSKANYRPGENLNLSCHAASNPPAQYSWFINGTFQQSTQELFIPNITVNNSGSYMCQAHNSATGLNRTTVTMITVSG
Experimental: (§1) HEK293 cells were added with 10 μg of each pEF1α-AcGFP-N1 vector (Clontech, Cat. No. 631973) as a control vector, CEACAM1, CEACAM3, CEACAM5, CEACAM6 and CEACAM8 plasmid vectors, followed by transfection under the condition of pulse voltage 1,100 V, pulse width 20 ms and pulse number 2. After 48 hours of transfection, GFP expression was confirmed by fluorescence microscopy. The cells were detached by treatment with 1 ml of TrypLE Express Solution (ThermoFisher Scientific; Cat. No. 12605010), resuspended in 9 ml of DMEM (Gibco, Cat. No. 11995-065) supplemented with 10% (v/v) FBS, and centrifuged at 1,200 rpm for 5 minutes, to remove the resulting supernatant.
(§2) After washing once with PBS, the cells were resuspended in a FACS buffer to obtain a concentration of 5×10⁵ cells/100 μl. Human Fc Block solution was added to the samples at 1 μl/sample, which were incubated at 4° C. for 10 minutes. The cells were treated with hulgG4 or one of the anti-CEACAM1 clones listed at 1 μg/5×10⁵ cells, which were incubated at 4° C. for 10 minutes. After washing with FACS buffer, the PE-labeled goat-anti-huIgG4 antibodies were diluted at a ratio of 1:200 in a FACS buffer, and added to the samples at 100 μl/sample, which were incubated at 4° C. for 30 minutes. The samples were filled with a FACS buffer up to 200 μl, and then centrifuged at 1,200 rpm for 5 minutes, to remove the resulting supernatant. The fixation buffer (300 μl) was added to resuspend the cells. The cells expressing GFP were selected in the FACS LSR-Fortessa device, and the expression of CEACAM members were evaluated respectively using the antibody specific to each CEACAM member (Table 3). Also, the binding of anti-CEACAM1 antibodies was evaluated by PE fluorescence channel and analyzed using the FlowJo software.

[2] = target: T2, CEACAM5 expressed on the surface of HEK293 cells (human, UniProt P06731 35-685)
T2 construct: whole, on cells; GFP-tagged clone; also called CEACAM5-GFP
T2 sequence (looked up): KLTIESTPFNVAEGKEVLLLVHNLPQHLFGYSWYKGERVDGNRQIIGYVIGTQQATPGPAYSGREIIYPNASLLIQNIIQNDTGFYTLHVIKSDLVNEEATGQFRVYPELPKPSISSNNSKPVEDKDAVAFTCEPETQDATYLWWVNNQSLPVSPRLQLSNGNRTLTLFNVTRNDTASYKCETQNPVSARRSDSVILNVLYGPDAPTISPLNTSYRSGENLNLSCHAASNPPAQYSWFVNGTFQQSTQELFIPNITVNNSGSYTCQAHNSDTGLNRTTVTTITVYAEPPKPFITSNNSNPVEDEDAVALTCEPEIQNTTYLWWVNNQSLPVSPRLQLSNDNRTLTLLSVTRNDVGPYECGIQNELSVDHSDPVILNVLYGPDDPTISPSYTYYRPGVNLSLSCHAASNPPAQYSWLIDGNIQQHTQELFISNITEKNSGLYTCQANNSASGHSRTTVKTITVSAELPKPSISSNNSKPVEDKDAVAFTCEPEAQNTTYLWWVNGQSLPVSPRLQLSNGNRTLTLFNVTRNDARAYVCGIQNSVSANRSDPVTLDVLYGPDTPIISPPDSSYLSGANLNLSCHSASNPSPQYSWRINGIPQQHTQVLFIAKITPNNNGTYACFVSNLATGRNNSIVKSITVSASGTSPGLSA
Experimental: as §1, §2

[3] = target: T3, CEACAM8 expressed on the surface of HEK293 cells (human, UniProt P31997 35-320)
T3 construct: whole, on cells
T3 sequence (looked up): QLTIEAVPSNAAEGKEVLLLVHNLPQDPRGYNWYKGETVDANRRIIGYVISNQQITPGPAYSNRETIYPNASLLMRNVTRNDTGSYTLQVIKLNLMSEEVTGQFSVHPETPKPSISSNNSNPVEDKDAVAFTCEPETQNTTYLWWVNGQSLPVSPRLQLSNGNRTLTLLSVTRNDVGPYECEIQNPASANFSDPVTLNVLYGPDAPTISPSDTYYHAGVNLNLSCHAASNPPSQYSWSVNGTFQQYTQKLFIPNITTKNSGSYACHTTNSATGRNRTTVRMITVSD
Experimental: as §1, §2

[4] = target: T4, CEACAM3 expressed on the surface of HEK293 cells (human, UniProt P40198 35-252)
T4 construct: whole, on cells; GFP-tagged clone; also called CEACAM3-GFP
T4 sequence (looked up): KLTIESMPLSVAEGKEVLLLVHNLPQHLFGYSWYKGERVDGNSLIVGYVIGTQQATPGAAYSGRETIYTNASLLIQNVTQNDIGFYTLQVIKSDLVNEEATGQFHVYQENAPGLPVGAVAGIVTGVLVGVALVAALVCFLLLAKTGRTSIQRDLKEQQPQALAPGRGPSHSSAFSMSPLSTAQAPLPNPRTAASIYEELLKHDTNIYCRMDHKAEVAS
Experimental: as §1, §2

Measured: binding result

B1: 4R26 (antibody, human IgG4 S228P, lambda, V domains shown)
VH: EVQLLESGGGLVQPGGSLRLSCAASGFTFSNYAMSWVRQAPGKGLEWVSVISHGGGSIYYADSVKGRLTISRDNSKNTLYLQMNSLRAEDTAVYYCARDPTKGYAPTFDYWGQGTLVTVSS
VL: QSVLTQPPSASGTPGQRVTISCSGSSSNIGNNYVSWYQQLPGTAPKLLIYADSKRLSGVPDRFSGSKSGTSASLAISGLRSEDEADYYCGAWDGRLNGYVFGGGTKLTVLG
notes: also called C25-derived clone 4R26
no binding: all assays above

B2: 4R9 (antibody, human IgG4 S228P, lambda, V domains shown)
VH: B1 VH
VL: B1 VL with K54R, L56P, G94L, R95S
notes: also called C25-derived clone 4R9
no binding: all assays above

B3: 4R9_H2-2 (antibody, human IgG4 S228P, lambda, V domains shown)
VH: B1 VH with T107L
VL: B1 VL with K54R, L56P, G94L, R95S
notes: also called C25-derived clone 4R9_H2-2
no binding: all assays above

B4: 4R9_H4-n20 (antibody, human IgG4 S228P, lambda, V domains shown)
VH: B1 VH with T28N
VL: B1 VL with K54R, L56P, G94L, R95S
notes: also called C25-derived clone 4R9_H4-n20
no binding: all assays above

Reference: patent US20200109196A1 (MOGAM INSTITUTE FOR BIOMEDICAL RESEARCH, published 2020)
